B1: CPEB3 Ribozyme (parent)
chain: GGGGGCCACAGCAGAAGCGUUCACGUCGCGGCCCCUGUCAGAUUCUGGUGAAUCUGCGAAUUCUGCUGU

Variants of: B1
Experiment: self-cleavage, relative activity (ratio to wild type); higher = more cleavage; co-transcriptional

Row | Variant | self-cleavage
1 | G14A U53C | 0.273
2 | G14A G65C | 0.311
3 | G14A G65U | 0.3
4 | G14C C45G | 0.468
5 | G14C C45A | 0.406
6 | G14C C45U | 0.562
7 | G14U A59U | 0.365
8 | G14C G17A | 0.164
9 | G14C G17C | 0.119
10 | G14A C34G | 0.23
11 | G14A C34A | 0.419
12 | G14A U64G | 0.576
13 | G14A U64C | 0.346
14 | G14C A52G | 0.57
15 | G14C U38G | 0.157
16 | A13U C35G | 0.258
17 | G14U A40U | 0.179
18 | G14U A40G | 0.425
19 | G14A G48U | 0.943
20 | G14A G48C | 0.836
21 | G14A G48A | 0.868
22 | G14C G47U | 0.725
23 | G14C G47A | 0.729
24 | G14C G19A | 0.136

Row | Variant | self-cleavage
25 | G14C C35G | 0.191
26 | G14C C35U | 0.464
27 | G14A G37A | 0.191
28 | G14C U44G | 0.39
29 | G14C U44A | 0.392
30 | G14A G19A | 0.16
31 | G14A G19C | 0.106
32 | G14C A16U | 0.28
33 | G14C A16C | 0.143
34 | G14C A16G | 0.353
35 | G14C G58A | 0.505
36 | G14A C63A | 0.829
37 | G14C A15C | 0.166
38 | G14A C39A | 0.22
39 | G14A C39U | 0.362
40 | G14A C39G | 0.385
41 | G14C A42C | 0.331
42 | G14C A42U | 0.228
43 | G14C A42G | 0.266
44 | G14A G17U | 0.111
45 | A13U U49C | 0.78
46 | G14C C34A | 0.406
47 | G14C C34G | 0.236
48 | G14A U43A | 0.306

Row | Variant | self-cleavage
49 | G14A U43C | 0.624
50 | G14A U43G | 0.23
51 | A13U C32G | 0.229
52 | A13U C32A | 0.542
53 | G14C C22U | 0.0705
54 | G14C C22G | 0.122
55 | G14C C22A | 0.142
56 | A13U C39A | 0.394
57 | A13U C39G | 0.508
58 | G14A C29U | 0.113
59 | A13U U38A | 0.609
60 | A13U U38C | 0.704
61 | A13U U38G | 0.198
62 | A13U U64G | 0.969
63 | A13U U64A | 0.945
64 | A13U U64C | 0.853
65 | G14A U61A | 0.357
66 | G14A G58U | 0.895
67 | G14A G58A | 0.703
68 | G14A G58C | 0.674
69 | G14A C54A | 0.239
70 | G14A C24A | 0.238
71 | G14A C24U | 0.2
72 | A13U C45G | 0.814

Row | Variant | self-cleavage
73 | A13U C45A | 0.764
74 | G14U C18U | 0.225
75 | G14U C18G | 0.0825
76 | G14U C18A | 0.142
77 | A13U G14A | 0.328
78 | A13U G14U | 0.437
79 | A13U C33A | 0.759
80 | A13U C33G | 0.333
81 | G14C A60G | 0.265
82 | G14C U53G | 0.397
83 | A13U G50A | 0.776
84 | A13U G50U | 0.857
85 | A13U G50C | 0.756
86 | A13U U53G | 0.398
87 | A13U U53A | 0.514
88 | A13U G31U | 0.402
89 | A13U G31C | 0.217
90 | A13U U61A | 0.456
91 | A13U U61C | 0.32
92 | A13U U61G | 0.46
93 | G14C C24U | 0.175
94 | G14A G31A | 0.249
95 | G14A G31C | 0.183
96 | G14C C66A | 0.244

Row | Variant | self-cleavage
97 | G14C C66U | 0.358
98 | G14A G50C | 0.61
99 | G14A G50A | 0.778
100 | G14A G50U | 0.743
101 | A13U U55G | 0.234
102 | A13U U55A | 0.246
103 | G14A A23G | 0.444
104 | G14A A23C | 0.582
105 | G14A C33A | 0.519
106 | G14C C63U | 0.862
107 | G14C C63A | 0.928
108 | G14C U49A | 0.712
109 | G14C U49G | 0.689
110 | G14U C24G | 0.109
111 | G14U C24U | 0.137
112 | G14C C33G | 0.293
113 | G14C C33A | 0.413
114 | G14C C33U | 0.636
115 | A13U U67A | 0.629
116 | A13U U67C | 0.66
117 | A13U G47U | 0.881
118 | A13U G47A | 0.893
119 | G14C A40C | 0.183
120 | G14C A40G | 0.324

Row | Variant | self-cleavage
121 | G14A U44A | 0.538
122 | G14A U44G | 0.64
123 | G14A U44C | 0.363
124 | G14A U55C | 0.281
125 | G14A U55G | 0.172
126 | G14C G31C | 0.167
127 | G14C G31U | 0.179
128 | G14C G31A | 0.228
129 | G14C A23C | 0.555
130 | G14C A23U | 0.761
131 | G14U A52U | 0.767
132 | G14U A52C | 0.715
133 | G14C G48A | 0.703
134 | G14C G48C | 0.677
135 | G14A C66U | 0.375
136 | G14A C66G | 0.287
137 | G14A C66A | 0.262
138 | G14C C32A | 0.25
139 | G14C C32G | 0.193
140 | A13U U36A | 0.121
141 | A13U U36G | 0.136
142 | G14C U21A | 0.477
143 | G14C U21C | 0.286
144 | G14C U21G | 0.11

Row | Variant | self-cleavage
145 | G14A A59G | 0.704
146 | G14A A59U | 0.369
147 | G14C U69G | 0.726
148 | G14C U69C | 0.968
149 | G14A C32G | 0.212
150 | G14A C32A | 0.336
151 | A13U G28A | 0.134
152 | A13U G28C | 0.125
153 | G14A C27A | 0.14
154 | G14A C27U | 0.134
155 | G14C C54G | 0.251
156 | G14C C54U | 0.544
157 | A13U C29U | 0.138
158 | G14C U20C | 0.116
159 | G14C U20A | 0.102
160 | A13U G19U | 0.15
161 | A13U G19A | 0.145
162 | A13U G19C | 0.133
163 | A13U G65C | 0.417
164 | A13U G65U | 0.419
165 | A13U G65A | 0.513
166 | G14C G30A | 0.255
167 | A13U C34G | 0.309
